This series concerns CCCC(=O)Oc1ccc([N+](=O)[O-])cc1. As to the kind of experiment: purified protein. The settings on record: 50 mM Tris-HCl pH 8, 10 μM enzyme, no α-CD.

This is an account of results in publication PMC9877181.

In the case of EstG (Caulobacter vibrioides NA1000), the Km turned out to be 11.2 mM.
